Target: ItaT(G115D) mutant protein (E. coli HS)
Test: crystal structure

## ItaT(G115D) mutant protein (enzyme)
  stoichiometry N: 2
